Test results published in the supplement of paper PMC9170038.

Tested on: MS2 coat protein
Test: apparent KD of MS2 coat protein; higher = weaker reporter binding
Details: Eterna round: R107
Outline: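 On-chip transcription from Illumina sequencing clusters produced the designed RNA switches. These were titrated with SNAP-549-labelled MS2 coat protein (twofold steps, 0.7 or 1.5 nM to 3 µM) in 100 mM Tris-HCl pH 7.5, 80 mM KCl, 4 mM MgCl2, with or without constant ligand. The apparent KD given is the per-design median of normalised cluster binding-curve fits.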

[1] = input ligand: theophylline 20 uM
[2] = input ligand: theophylline 2 mM
[3] = input ligand: tryptophan 2.4 mM

| Sequence | apparent KD of MS2 coat protein (input ligand: arginine 13.2 mM) [nM] | apparent KD of MS2 coat protein (input ligand: none) [nM] | apparent KD of MS2 coat protein [1] [nM] | apparent KD of MS2 coat protein [2] [nM] | apparent KD of MS2 coat protein [3] [nM] |
| --- | --- | --- | --- | --- | --- |
| GGACCAUGGAGCGAUACCAGCUUGAGUGUACUGGCCAGGUACAUGAGGAUCACCCAUGUAAGCCCUUGGCAGCGCUCCAUGGUCC [#1 Exclusion - Theophylline B Attempt #25 (HarryS)] | 8.38 | 9.95 | 14.7 | 30.8 | 12.3 |
| GUUGUAUACUCGGCCGCCACUGAGAGAGUCAUGUAAACAUGAGGAUCACCCAUGUAAUAUAUAUACAGGACCGGGAGUGUGGUAA [4.G] | 9.31 | 12.8 | 16 | 12 | 11.8 |
| AACAUGAGGAUCACCCAUGUAAUAUGGGAUACCAGAGACGAAAGUCUCCCUUGGCAGCCCAAGCUGCUCCAUACGAAAGUAUGGU [Theophylline A 16] | 50.5 |  | 43.7 |  | 64.7 |
| CAAGACAUGAGGAUCACCCAUGUGGUGUACCGAGGACCGGUACGGCCGCCACUCGUUCAUCGGUCGACAAGCUACCCUUCAAGGU [theeternabot_sameState_MS2_Trp_A_7] | 25.5 |  | 40.4 | 27.7 |  |
| AGAAUAACACAUGAGGAUCACCCAUGUGAUACCAGCUAGGAAACUAGCCCUUGGCAGCACAUAAUCCUCAUGAGCUGCCAUAAUA [(M1)-(M2)-(T1)-(T2)-(M)'-(T)'_Design2_2/19/17] | 12 |  | 19.2 |  | 12.3 |
| UUUUAAUGUGCGGAUACCAGCCGUACAUGAGGAUCACCCAUGUCGCUGUUGAGCAUCGUCGGCCCUUGGCAGCUGUGUGUAGUUG [#27 Same State - Theophylline B] | 26.2 | 51.9 | 62.7 | 66 | 42.3 |
| GCAAUACAUGAGGAUCACCCAUGUGCAGAUACCAGAGGUGUAUGCCUCCCUUGGCAGCUGCGACGCUCUGGCAUCUUGUGGGAUG [Same State Theophylline A GF19] | 22.2 |  | 73.7 |  | 52 |
| AGAGCAUUGACGGCCGCCACUCGUGUCACAUGAGGAUCACCCAUGUGACGGGUGAUCGCCCGGUUGAGGACCGGGUCAAUGCUCA [Omei Tryp SS B v8] | 10.4 |  | 13 | 11.2 |  |
| GGCACCAGGAGAAGGAGCGUGAAGACAUGAGGAUCACCCAUGUAGAGGCGCCGACGGCGUUCGCAGGUAGGUCGCUCCUGGUGCC [#1 Same State - Arginine B Attempt #16 (HarryS)] | 20.9 | 21 | 32.3 | 23.5 | 29.3 |
| CUAAUUAUAUCGGCCGCCACUUACUCAUGAGGUAACAACAUGAGGAUCACCCAUGUUUGAGGAUCAAGGACCGGGAUAUAAUUAG [AstrosSSTry#24] | 30.5 |  | 33 | 34.9 |  |
| ACACAAUACAUGAGGAUCACCCAUGUAUAACGAGGACCGGUACGGCCGCCACUCGAAUACUGUAAUCCUCGGAAUAUUAUGUGAA [JR_ExcTryptA_Sub003] | 32.9 |  | 56.7 | 60.5 |  |
| UGGCAAGAGGGAAGGAGCGUCAGCUGAGUCACAUGAGGAUCACCCAUGUAGCACAUAGUGUGACAGGUAGGUCGCCCUCUGCCGU [SS-ArgB10] | 6.72 | 8.82 | 10.1 | 10.3 | 9.62 |
| GGACUAACCUGAAGGAGCGACGCGCAGAAACUGCAAUUUCCUCCACACGAGGAUCACCCGUGUCAGGUAGGUCGCAGGUUAGUCG [ArgBX 29] | 13.1 | 14.1 | 18.3 | 15.4 | 15.3 |
| GCUGUAAGUGCAGAUACCAGCAUGUUAUAUUUCUAAUGACAUGAGGAUCACCCAUGUAAAUGCCCUUGGCAGCUGCACUUACAGC [SSTHB #6] | 15.6 |  | 21.4 |  | 18.7 |
| AGAGUUAGACAAAAGUCUAGCUCACCAGAAGGAGCGUCCGAAAGGACAGGUAGGUCGCUGGUGCUUGAGGAUCACCCAAGUUCCU [ArgAS 22 #OpenEnded #AlternativeMS2] | 82.7 | 96.1 | 121 | 204 | 128 |
| UCACAUGAGGAUCACCCAUGUCAUGUUGAAGGAGCGACCAGGAGGUCAGGUAGGUCGCAACACAUGAGGAUCACCCAUGUGGCCC [Qetesh] | 87.5 | 172 | 119 | 159 | 149 |
